We go through two molecules from patent US20220348610A1 (published 2022).

Numbered stars: 1 amine (or outer) side, 2 acyl side, 3 side chain; on linkers, the order of the positions; unused ones are H or OH. Bridge positions count the residues as written; N and C are the ends. Square brackets hold non-standard residues; d marks the D form. Tyr(OMe) = O-methyl-Tyr (4-methoxyphenylalanine), COc1ccc(C[C@H](N[*:1])C(=O)[*:2])cc1; Trp(5-F) = N[C@@H](Cc1c[nH]c2ccc(F)cc12)C(=O)O; mXylylene = c1cc(C[*:1])cc(C[*:2])c1; AlexaFluor 647 = AlexaFluor 647 dye; αMeP = C[C@@]1(C(=O)O)CCCN1; Mpa = O=C(O)CCS

The target in assay [1] is T1, biotinylated PCSK9 (UniProt Q8NBP7 31-692, limits assumed, biotinylated (site not stated)). The experiment in a line: Alexa FRET Standard assay. The procedure: A solution containing 1 nM biotinylated PCSK9+2.5 nM Lance Streptavidin Europium (Strep-Eu) was made in 50 mM HEPES pH 7.4, 0.15 M NaCl, 5 mM CaCl₂), 0.01% BSA, and 0.01% Surfactant P20. A separate solution containing 40 nM of the AlexaFluor tagged cyclic peptide was made in the same buffer system. An Echo was used to transfer 0.750 ul of compound to an assay plate followed by the addition of 15 ul of PCSK9+Stept-Eu and 15 ul of AF peptide. The final assay volume was 30.750 ul containing 0.5 nM PCSK9, 1.25 nM Strep-Eu, and 20 nM AF cyclic peptide. The reaction was incubated at room temperature for at least two hours prior to fluorescence measurements using an Envision Multilabel Reader. IC₅₀ values were determined by fitting data to a sigmoidal dose-response curve using nonlinear regression. Kᵢ was then calculated from the IC₅₀ and the KD of AF cyclic peptide. Counts (B-counts) of the europium-labeled PCSK9 were followed to observe if compounds were […]. A fall off of the B-counts likely indicated a false positive of inhibition. Data from this procedure was reported as “A=‘numerical value’ (nanomolar)”

Assay [2] deals with T1, biotinylated PCSK9. The assay can be described thus: Alexa FRET Plus assay. The method, then:
A solution containing 1 nM biotinylated PCSK9+2.5 nM Lance Streptavidin Europium (Strep-Eu) was made in 50 mM HEPES pH 7.4, 0.15 M NaCl, 5 mM CaCl₂), 0.01% BSA, and 0.01% Surfactant P20. A separate solution containing 1920 nM of the AlexaFluor tagged cyclic peptide was made in the same buffer system. An Echo was used to transfer 0.075 ul of compound plus 0.675 ul of DMSO to each well of an assay plate followed by the addition of 15 ul of PCSK9+Stept-Eu and 15 ul of AF peptide. The final assay volume was 30.750 ul containing 0.5 nM PCSK9, 1.25 nM Strep-Eu, and 960 nM AF cyclic peptide. The reaction was incubated at room temperature for at least two hours prior to fluorescence measurements using an Envision Multilabel Reader. IC₅₀ values were determined by fitting data to a sigmoidal dose-response curve using nonlinear regression. Kᵢ was then calculated from the IC₅₀ and the KD of AF cyclic peptide. Counts (B-counts) of the europium-labeled PCSK9 were followed to observe if compounds were adversely affecting PCSK9. A fall off of the B-counts likely indicated a false positive of inhibition. Data from this procedure was reported as “P=‘numerical value’ (nanomolar)”

T1 sequence (Q8NBP7 31-692 limits assumed): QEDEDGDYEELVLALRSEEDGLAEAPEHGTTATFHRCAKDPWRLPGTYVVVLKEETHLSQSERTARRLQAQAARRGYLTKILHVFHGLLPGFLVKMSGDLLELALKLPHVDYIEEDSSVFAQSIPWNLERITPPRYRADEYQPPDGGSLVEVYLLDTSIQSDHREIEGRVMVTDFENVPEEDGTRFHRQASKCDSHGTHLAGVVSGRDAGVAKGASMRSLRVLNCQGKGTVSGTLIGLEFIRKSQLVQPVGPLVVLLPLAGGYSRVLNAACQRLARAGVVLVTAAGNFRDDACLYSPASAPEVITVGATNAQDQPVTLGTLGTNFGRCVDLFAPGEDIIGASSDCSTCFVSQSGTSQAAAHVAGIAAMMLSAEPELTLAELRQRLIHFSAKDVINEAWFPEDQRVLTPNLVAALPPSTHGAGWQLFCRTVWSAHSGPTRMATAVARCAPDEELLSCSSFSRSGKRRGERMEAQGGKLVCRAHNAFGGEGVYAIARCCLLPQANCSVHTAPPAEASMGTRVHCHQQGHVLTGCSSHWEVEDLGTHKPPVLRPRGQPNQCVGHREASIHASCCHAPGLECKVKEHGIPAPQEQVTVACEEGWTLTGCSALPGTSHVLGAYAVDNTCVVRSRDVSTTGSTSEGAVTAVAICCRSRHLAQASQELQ

B1: Reagent A (peptide)
peptide: [Mpa]K(AlexaFluor 647)G[Trp(5-F)][Trp(5-F)]DHY[αMeP]C-NH2
modifications: linker N-10 via mXylylene; not fully specified
notes: also called AlexaFluor647 (AF) tagged cyclic peptide; AF cyclic peptide
The Kd is a measure of binding affinity in units of concentration. In the assay with biotinylated PCSK9 [1], B1 yielded a dissociation constant (Kd) of 83 nM.

B2: Reagent B (peptide)
peptide: [Mpa]K(AlexaFluor 647)[dA][Trp(5-F)][Trp(5-F)]DH[Tyr(OMe)][αMeP]C-NH2
modifications: linker N-10 via mXylylene; not fully specified
notes: as for B1
For the molecule B2, the Kd with biotinylated PCSK9 [2] was 35 nM.
